Assay results from paper PMC8119438.

Biological target: GST-Rab12 (mouse) (UniProt P35283)
Test: pull-down; 20 μg GST, GST-Rab12 or GST-Rab12(K71R) on glutathione agarose beads, 18 h at 4 °C with 500 μg lysate of RBL cells transfected with T7-tagged RILP, RILP mutants, RILP-L1 or RILP-L2, 0.5 mM GTPγS; blot anti-T7 (Fig. 2b,c; Supplementary figure S3)

Chain of UniProt P35283 (P35283 other isoform, or with tags, fused parts or gaps): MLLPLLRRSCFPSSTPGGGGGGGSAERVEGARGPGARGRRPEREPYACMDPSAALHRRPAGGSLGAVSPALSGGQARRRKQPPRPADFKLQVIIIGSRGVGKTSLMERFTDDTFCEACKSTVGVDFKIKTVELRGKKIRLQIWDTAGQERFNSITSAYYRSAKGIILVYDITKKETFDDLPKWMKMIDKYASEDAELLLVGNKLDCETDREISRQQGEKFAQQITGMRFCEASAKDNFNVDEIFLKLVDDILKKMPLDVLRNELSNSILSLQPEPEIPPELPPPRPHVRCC

| Binder | percent by which the pulldown by Rab12 was impaired, against wild type RILP [%] | percent by which the pulldown by Rab12 was inhibited, against wild type RILP [%] |
| --- | --- | --- |
| T7-RILP(L231A) (natural protein) MEPRRAAPRLPSQASSSVGAGSAAELVYHLAGALGTELQGLARRFGPDAAAGLVPLVVRALELLEKAAVGPAPDSLQVSAQQAEVELRRLREENQRLRQELGSGPQEERALLRQLKEVTDRQRDELRAHNRDLQRRSQETEALQEQLQRLLLINSELRHKLAAVQTQLRAAQDRERERQIAQDGSSQLAKEQSLEPDAATSDDPVDTQKQPGNLPEAVQCGFSREELKQIAQERNELKANVFLLKEELAYFQRELLTDHRVPGLLLEAMKVAVKKQRRKIKAKMLGTPEEAESSEDEDGSWLLLSNDKEDVPLVPESRIQNFFGLWYRGETEAPEAETSNPASSSLQKGEETPQQPHLQPVNSPPAPNS | 85 | – |
| T7-RILP(E233A) (natural protein) MEPRRAAPRLPSQASSSVGAGSAAELVYHLAGALGTELQGLARRFGPDAAAGLVPLVVRALELLEKAAVGPAPDSLQVSAQQAEVELRRLREENQRLRQELGSGPQEERALLRQLKEVTDRQRDELRAHNRDLQRRSQETEALQEQLQRLLLINSELRHKLAAVQTQLRAAQDRERERQIAQDGSSQLAKEQSLEPDAATSDDPVDTQKQPGNLPEAVQCGFSREELKQILQARNELKANVFLLKEELAYFQRELLTDHRVPGLLLEAMKVAVKKQRRKIKAKMLGTPEEAESSEDEDGSWLLLSNDKEDVPLVPESRIQNFFGLWYRGETEAPEAETSNPASSSLQKGEETPQQPHLQPVNSPPAPNS | – | 90 |
